This note sets out measurements from patent US20230285635.

The target of data set [1] is CD31 (PECAM-1) (UniProt P16284). Briefly: flow. The following applies: positions printed as 6 (n in SEQ ID NO: 1) are modified bases, identity not stated in the supplied text; at 600 and 800 nM aptamer, saturated at 600 nM; CD31-negative HepG2 and MSCs only about 2% bound.
Data set [2] shares this target. Briefly: cell_activity. The following applies: positions printed as 6 (n in SEQ ID NO: 1) are modified bases, identity not stated in the supplied text; aptamer-coated microfluidic device on ECM, shear stress 20 dynes/cm2; antibody coating 51%; more than 80% attached at 10 dynes/cm2.

Sequence “TCAGCCGCCAGCCAGTTCGTAGAGGAGGTACGTAATGTCTGGGTATACCCCGATAATTGACCAGAGCACCACAGAG [anti-CD31 aptamer]” yielded a binding signal (% of HUVECs bound) in data set [1] of 99. The sequence further displayed an activity (% HUVECs attached) in data set [2] of 61.5.
